Laboratory results: PMC9692336

Columns and labels:
[1] = target: platelet glycoprotein receptor Ib (UniProt P07359)
[2] = target: platelet glycoprotein receptor Ib (UniProt P07359); remark: listed apart in the source

VWF:RCo activity (ristocetin co-factor assay, aggregation of fixed platelets) in factor VIII-deficient plasmas after addition of polyP65 (2.5 and 7.1 µM) [1]: 2 fold
VWF:RCo activity in factor VIII-deficient plasmas after addition of purified recombinant factor VIII [2]: 4 fold
Substance: von Willebrand factor in plasma (from UniProt P04275 764-2813) (natural protein)
